The results in this text go back to publication PMC7721913 (The Journal of Cell Biology, 2020).

For the test, the target named is KLC1 TPR1-6 fragment (human KNS2 residues 205-501) (human, UniProt Q07866 205-501). The test is described as follows: ITC. For orientation: In ITC the heat of successive injections is recorded.
Sequence of KLC1 TPR1-6 fragment (human KNS2 residues 205-501) (Q07866 205-501): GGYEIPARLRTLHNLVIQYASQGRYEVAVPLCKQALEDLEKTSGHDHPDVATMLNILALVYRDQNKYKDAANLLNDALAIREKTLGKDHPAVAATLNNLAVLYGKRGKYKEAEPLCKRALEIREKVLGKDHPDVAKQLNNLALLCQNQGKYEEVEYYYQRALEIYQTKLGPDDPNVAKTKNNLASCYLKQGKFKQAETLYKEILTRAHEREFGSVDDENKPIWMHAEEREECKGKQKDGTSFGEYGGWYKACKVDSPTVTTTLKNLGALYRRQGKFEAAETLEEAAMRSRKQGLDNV

Turning to ESEMEDAYHEHQANLLR [WT SFPQ peptide spanning the Y-acidic motif], binding was characterised by a dissociation constant (Kd) of 3.83 ± 2.31 µM, the dH was -2.05 ± 0.438 kcal/mol and the stoichiometry N (commonly a count of units in the complex or per binding partner) amounted to 0.964 ± 0.143.
